Results published in PMC10314921, “Eltrombopag directly activates BAK and induces apoptosis” (Cell Death & Disease, 2023).

B1: BAK lacking its transmembrane domain (BAKΔTM), wild type [human] / itself (parent)
chain: EPALPSASEEQVAQDTEEVFRSYVFYRHQQEQEAEGVAAPADPEMVTLPLQPSSTMGQVGRQLAIIGDDINRRYDSEFQTMLQHLQPTAENAYEYFTKIATSLFESGINWGRVVALLGFGYRLALHVYQHGLTGFLGQVTRFVVDFMLHHCIARWIAQRGGWVAALNLGNG

Variants of: B1
Assay: size exclusion chromatography (BAK oligomerization assay)
Settings: with itself; with Eltro (3.4 mM in panels a, b); CHAPS buffer, 1 h at 25 °C; Superdex75; parent: 54; read off a plot

screen value [%] | Variant
42 | chain 1 R141A
39 | chain 1 R141E
